The values that follow come from publication doi:10.1101/2022.09.21.508879.

In experiment [1] the target is Trypanosoma brucei CFAP410 C-terminal domain, wild type (Trypanosoma brucei). Description: crystal structure.
The target of experiment [2] is Chlamydomonas reinhardtii CFAP410 C-terminal domain, wild type (Chlamydomonas reinhardtii). Put plainly: SEC-MALS. Background: SEC sorts molecules by how far they enter the pores of the column.
For experiment [3] the target is unchanged. Description: crystal structure.
Experiment [4] concerns the target Chlamydomonas reinhardtii CFAP410 C-terminal domain, mutant A219E (Chlamydomonas reinhardtii). Description: SEC-MALS.
Experiment [5] deals with Homo sapiens CFAP410 C-terminal domain, wild type (Homo sapiens) (UniProt O43822). Description: crystal structure.

The term stoichiometry N denotes the number of molecules, sites or subunits per partner or assembly. On to “Trypanosoma brucei CFAP410 C-terminal domain, wild type (peptide)”, for which the stoichiometry N in experiment [1] came out at 4.

For the substance “Chlamydomonas reinhardtii CFAP410 C-terminal domain, wild type (peptide)”, the stoichiometry N in experiment [2] and in experiment [3] was 4 in each case.

The substance “Chlamydomonas reinhardtii CFAP410 C-terminal domain, mutant A219E (peptide)” yielded a stoichiometry N in experiment [4] of 2.

In turn, “Homo sapiens CFAP410 C-terminal domain, wild type (from UniProt O43822 212-246) (peptide)” showed a stoichiometry N in experiment [5] of 4.
